The target in data set [1] is MutLβ (MLH1-PMS1 heterodimer) carrying a 6xHis tag on the PMS1 subunit (human, UniProt P40692;P54277). Put plainly: pull-down.
The target of data set [2] is T1, MutSβ WT, MSH3 subunit;MutSβ, MSH2 subunit (human;human?, UniProt P20585;P43246 1-1137;1-934, |). Kind of data set: EMSA.
Data set [3] has as its target T1, MutSβ WT, MSH3 subunit;MutSβ, MSH2 …. Put plainly: pull-down.

B1: Flag-tagged FANCJ (enzyme)
chain: MSSMWSEYTIGGVKIYFPYKAYPSQLAMMNSILRGLNSKQHCLLESPTGSGKSLALLCSALAWQQSLSGKPADEGVSEKAEVQLSCCCACHSKDFTNNDMNQGTSRHFNYPSTPPSERNGTSSTCQDSPEKTTLAAKLSAKKQASIYRDENDDFQVEKKRIRPLETTQQIRKRHCFGTEVHNLDAKVDSGKTVKLNSPLEKINSFSPQKPPGHCSRCCCSTKQGNSQESSNTIKKDHTGKSKIPKIYFGTRTHKQIAQITRELRRTAYSGVPMTILSSRDHTCVHPEVVGNFNRNEKCMELLDGKNGKSCYFYHGVHKISDQHTLQTFQGMCKAWDIEELVSLGKKLKACPYYTARELIQDADIIFCPYNYLLDAQIRESMDLNLKEQVVILDEAHNIEDCARESASYSVTEVQLRFARDELDSMVNNNIRKKDHEPLRAVCCSLINWLEANAEYLVERDYESACKIWSGNEMLLTLHKMGITTATFPILQGHFSAVLQKEEKISPIYGKEEAREVPVISASTQIMLKGLFMVLDYLFRQNSRFADDYKIAIQQTYSWTNQIDISDKNGLLVLPKNKKRSRQKTAVHVLNFWCLNPAVAFSDINGKVQTIVLTSGTLSPMKSFSSELGVTFTIQLEANHIIKNSQVWVGTIGSGPKGRNLCATFQNTETFEFQDEVGALLLSVCQTVSQGILCFLPSYKLLEKLKERWLSTGLWHNLELVKTVIVEPQGGEKTNFDELLQVYYDAIKYKGEKDGALLVAVCRGKVSEGLDFSDDNARAVITIGIPFPNVKDLQVELKRQYNDHHSKLRGLLPGRQWYEIQAYRALNQALGRCIRHRNDWGALILVDDRFRNNPSRYISGLSKWVRQQIQHHSTFESALESLAEFSKKHQKVLNVSIKDRTNIQDNESTLEVTSLKYSTSPYLLEAASHLSPENFVEDEAKICVQELQCPKIITKNSPLPSSIISRKEKNDPVFLEEAGKAEKIVISRSTSPTFNKQTKRVSWSSFNSLGQYFTGKIPKATPELGSSENSASSPPRFKTEKMESKTVLPFTDKCESSNLTVNTSFGSCPQSETIISSLKIDATLTRKNHSEHPLCSEEALDPDIELSLVSEEDKQSTSNRDFETEAEDESIYFTPELYDPEDTDEEKNDLAETDRGNRLANNSDCILAKDLFEIRTIKEVDSAREVKAEDCIDTKLNGILHIEESKIDDIDGNVKTTWINELELGKTHEIEIKNFKPSPSKNKGMFPGFK
As to B1, the binding result in data set [1] is listed as “binds”.

As to AGGGGGGAGGGAGGGTGG (structured_DNA) [CEB1 G4], the binding result in data set [2] is reported as “binds”.

B2: b66-G4 (structured_DNA)
DNA: TTTTTTTTTTTTTTTTTTTTTTTTTTTTTTTTTTTTTTTTTTTTTGGGTGGGTGGGTGGGTTTTTT
In the case of B2, the binding result in data set [3] is reported as “binds”.

(Values after PMC10849593 (Science Advances, 2024).)
